Our source for the Kd, dH and in vitro pppGpp synthesis by 1 µM RelA^N-terminal with 4 µM NirD: percent of GTP converted to pppGpp within 60 min (80% without NirD) values is PMC8321558.

The target of test [1] is NirD (purified, untagged) (Escherichia coli) (UniProt P0A9I8). Kind of test: BLI; biotinylated NirD or NirD^E50K on streptavidin biosensors, RelA^N-terminal as analyte (up to 30 µM); BLItz, 25°C; 50 mM Tris-HCl pH 8.0, 500 mM NaCl, 500 mM KCl, 2 mM β-mercaptoethanol, 2% glycerol; KD from steady-state responses, one site model. On the technique in general: In BLI a coated tip is dipped into the sample, and binding shifts an interference pattern.

Test [2] deals with T1, RelA^N-terminal (purified RelA catalytic domains) (Escherichia coli).
T1 sequence (P0AG20 whole entry, looked up): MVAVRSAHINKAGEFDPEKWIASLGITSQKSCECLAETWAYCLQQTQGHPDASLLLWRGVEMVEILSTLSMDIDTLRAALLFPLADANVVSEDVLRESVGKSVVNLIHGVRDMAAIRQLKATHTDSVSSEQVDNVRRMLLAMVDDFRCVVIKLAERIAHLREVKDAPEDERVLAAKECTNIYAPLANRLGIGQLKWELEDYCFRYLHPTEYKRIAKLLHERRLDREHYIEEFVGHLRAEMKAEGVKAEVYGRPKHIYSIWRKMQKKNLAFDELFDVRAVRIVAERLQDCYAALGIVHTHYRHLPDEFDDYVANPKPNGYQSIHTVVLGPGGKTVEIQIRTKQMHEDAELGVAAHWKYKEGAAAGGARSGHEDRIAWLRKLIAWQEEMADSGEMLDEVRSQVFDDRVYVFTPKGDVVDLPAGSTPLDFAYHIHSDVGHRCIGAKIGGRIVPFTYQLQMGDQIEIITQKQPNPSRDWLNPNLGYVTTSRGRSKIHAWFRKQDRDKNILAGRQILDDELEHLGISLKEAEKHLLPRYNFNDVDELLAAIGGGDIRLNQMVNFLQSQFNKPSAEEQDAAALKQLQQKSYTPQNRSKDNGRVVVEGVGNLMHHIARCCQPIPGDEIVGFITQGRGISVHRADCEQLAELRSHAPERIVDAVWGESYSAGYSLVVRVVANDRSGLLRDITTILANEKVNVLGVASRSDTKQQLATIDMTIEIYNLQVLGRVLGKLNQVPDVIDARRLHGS
Kind of test: ITC; RelA^N-terminal (30 µM) in the cell, NirD or NirD^E50K (300 µM) in the syringe; 25°C; 50 mM Tris-HCl pH 8.0, 500 mM NaCl, 500 mM KCl, 2 mM β-mercaptoethanol, 2% glycerol; One Set of Sites model. For orientation: In ITC the heat of successive injections is recorded.

Test [3] shares this target.

In turn, “RelA^N-terminal (purified RelA catalytic domains) (domain or fragment)” came in with a Kd in test [1] of 550 nM. In other words, the sub-micromolar range.

B1: NirD (purified, untagged) (natural protein)
chain: MSQWKDICKIDDILPETGVCALLGDEQVAIFRPYHSDQVFAISNIDPFFESSVLSRGLIAEHQGELWVASPLKKQRFRLSDGLCMEDEQFSVKHYEARVKDGVVQLRG
modifications: biotinylated with EZ-Link NHS-PEG4-Biotin for the biolayer interferometry only
Turning to B1, in test [2], the Kd was found to be 340 nM and the dH was -3.63 kcal/mol. Moreover, the in vitro pppGpp synthesis by 1 µM RelA^N-terminal with 4 µM NirD: percent of GTP converted to pppGpp within 60 min (80% without NirD) in test [3] amounted to 30%.

What is called Kd is the free concentration of one partner at which half of the binding sites on the other are occupied at equilibrium, for simple one-to-one binding. The low end stands for higher affinity, the high end for lower affinity.
